# Changes are numbered by the printed parent chain.
# T1: CARD domain of human ASC (human, UniProt Q9ULZ3 107-195)
# T1 construct: biotinylated in BLI; also called hCARD; human CARD
# T1 sequence: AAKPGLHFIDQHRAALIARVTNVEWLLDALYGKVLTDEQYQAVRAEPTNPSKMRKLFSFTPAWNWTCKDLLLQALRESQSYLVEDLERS
# T2: mouse ASC (mouse, UniProt Q9EPB4 1-193)
# T2 construct: recombinant mASC in ELISA and SPR; endogenous ASC of J774.A1 cells in Western blot and immunofluorescence; also called mASC
# T2 sequence: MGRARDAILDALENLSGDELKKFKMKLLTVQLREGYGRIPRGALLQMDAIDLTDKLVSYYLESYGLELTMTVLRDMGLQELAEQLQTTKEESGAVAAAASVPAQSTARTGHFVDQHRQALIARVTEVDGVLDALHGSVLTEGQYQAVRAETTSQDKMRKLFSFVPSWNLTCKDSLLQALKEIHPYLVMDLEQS
# B1: ACI-8016-203G8B10-AB1 (antibody, V domains shown)
# VH: EVKLEESGGGLVHPGGSMKLSCVASGFTFSNYWMNWVRQSPEKGLEWVAQIRLKSENYATHSAESVKGRLTISRDDSKSSVYLQMNNLRAEDTGIYYCLAGWGLDYWGQGTTLTVSS
# VL: DIVMTQAAFSNPVTLGTSASISCRSSKTLLHSDGFTYLYWYLQRPGQSPQLLIHRVSNLASGVPNRFSGSESGTDFTLRISRVEPEDVGVYYCAQMLELPLTFGSGTKLELK
# B2: ACI-8016-407E10A9-AB1 (antibody, V domains shown)
# VH: EVQLVESGGGFVKPGGSLKLSCAASGFTFSNYAMSWVRQTPEKRLEWVATIYSGGIFTYYPDSVKGRFTISRDSAKNTLYLQMTSLRSEDTAIYYCARLGGSYWGQGTLVTVSA
# VL: QAVVTQESALTTSPGETVTLTCRSSTGAVTTNNYANWVQEKPDHFFTGLIGGTDNRPPGVPARFSGSLIGDKAALTITGAQTEDEAIYFCALWYNNHWVFGGGTKLTVL
# B3: ACI-8016-421B10C12D2-AB1 (antibody, V domains shown)
# VH: EVQLQQSGADLVKPGASVKLSCTASGFNIEDTYIHWVKQRPARGLEWVGRIDPANGNTDYDPKFQGKATMITDTSSNTVYLQVSSLTSEDTAVYFCGRHDGYDMDYWGQGTSVTVSS
# VL: DIVMSQSPSSLAVSAGEKVTMSCQSSQSLLNGRTRRNYLAWYQQKPGQSPKLLIYWASTRKSGVPDRFTGSGSGTDFTLTITSVQAEDLAVYYCKQSYNLVTFGAGTKLELK
# B4: ACI-8016-417E12A8-AB1 (antibody, V domains shown)
# VH: QVQLQQPGAELVRPGASVILSCKASGYTFTSSWITWVKQRPGQGLEWIGNIYPSDSYTNSNQKFKDKATLTVDKSSSTAYMHLISPTSEDSAVYYCTRKDFVYDAWYFDVWGAGTTVTVSS
# VL: DIVMTQSQKFMSTSVGDRVTVTCKASQNVGTNVAWYQQRPGQSPKPLIYSASYRNSGVPDRFTGSGSGTDFTLTITNVQSEDLAEYFCQQYNNYPLTFGAGTKLELK
# B5: ACI-8016-402H11C9-Ab1 (antibody, V domains shown)
# VH: QVQLQQSGAELARPGASVKMSCKASGYTFTTYTMHWVKQRPGQGLEWIGYINPSSGYTYYNQNFKDKATLTADKSSSTAYMQLSNLASDDSAVYYCALGGNPAWFAYWGQGTLVTVSA
# VL: DIVLTQSPATLSVTPGDSVSLSCRASQSIGNNLHWYQHKSHESPRLLIKYASQSISGIPSRFSGSESGTDFTLSINSVETEDFGIYFCQQSKSWPWTFGGGTKLEIK
# B6: ACI-8016-27A1G4-AB1 (antibody, V domains shown)
# VH: QVQLQQSDAELVKPGASVKISCKVSGYTFTDHTIHWMRQRPEQGLEWIGYIYPGDASSYYNEKFKGKATLTADQSSNTAYIQVNSLTSEDSAVYFCARPLYSYASYYWFAYWGQGTLVTVSA
# VL: DIQMNQSPSSLSASLGDTITITCHASQNINVWLTWYQQKPGNIPKLLIYKASNLHTDVPSRFSGSGSGTGFTLTISSLQPEDIATYYCQQGQSYPLTFGGGTKLEIK
# notes: also called 936.27A1G4
# B7: ACI-8016-2516A8C6-AB1 (antibody, V domains shown)
# VH: QVQLQQSGAELARPGASVKLSCKASGHTFTSYGISWVKQRTGQGLEWIGKIYPRSGNTYYDEKFKGKATLTADKPSTTAYMELRSLTSEDSAVYFCATRDYWGQGTTLTVSS
# VL: QIVLTQSPVIMSASPGEKVTITCSASSSVSYMYWFQQKPGTSPKFWIYSTSNLASGVPARFSGSGSGTSYSLTISRMEAEDAATYYCQQRSRYPWTFGGGTKLEIK
# B8: ACI-8016-11A3F3-AB1 (antibody, V domains shown)
# VH: QVQLQQSGAELARPGTSVKLSCKASGYTFISFGLSWVKQRTGQGLEWIGEIYPRIDNPYYNEKFKGKAILTADKSSSTAYMELRSLTSEDSAVYFCARYFTKGNYFDYWGQGTTLTVSS
# VL: DIQMTQSPASLAASVGETVTITCRASENIYYSLAWYQQKQGKSPQVLIYYANSLEDGVPSRFSGSGSGTQYSLKINSMQPEDTATYFCKQAYDVPFTFGTGTKLELK
# notes: also called 936.11A3F3
# B9: ACI-8016-14G5B8-AB1 (antibody, V domains shown)
# VH: EVQLQESGPELVKPGSSVKISCKASGYTFADHYMNWVKQSHGKSLEWIGDINPNNGGSVYNQKFKGKATLTVDKSSSTAYMELRSLTSEDSAVYFCARRRAHYYDGPYFDYWGQGTTLTVSS
# VL: DIVMTQSQKFMSTSVGDRVSLTCKASQIVGTAVAWYQQKPGQSPKLLIYSASIRYTGVPDRFTGSGSGTDFTLTISNMQSEDLADYFCQQYSNYPTFGAGTKLELK
# notes: also called 936.14G5B8
# B10: ACI-8016-29C5E11-AB1 (antibody, V domains shown)
# VH: EVQLQQSGAELVRPGSSVKMSCRTSGYTFTNNGITWVKQRPGQGLEWIGYIYVGNGYTEYNEKFKDKATLTSDTASSTVYMQLNSLTSEDSAIYFCARLDRGRALDYWAQGTTLTVSS
# VL: DIVLTQSPASLAVSLGQRATISCRASKSVSSSAYSYMHWYQQKPGQPPKLLIHLASNLESGVPARFSGSGSGTDFTLNIHPVEEEDAATYYCQHSWELPYTFGGGTKLEIK
# notes: also called 936.29C5E11
# B11: ACI-8016-7G3B5-AB1 (antibody, V domains shown)
# VH: EVQLQQSVAELVRPGASVKLSCTASGFNIKNTYMHWVKQRPEQGLEWIGRIDPANGNTKYVPKFQGKATITADTSSKTAYLQLSSLTSEDTAIYYCTRWGFDKDGVVYAMDYWGQGTSVTVSS
# VL: B5 VL with I2V, G30Y, H38Q, I48V, E66G, I85M, K92N, W96L, G100A, I106L
# notes: also called 936.7G3B5
# Molecular target: T3, human ASC (apoptosis associated speck-like protein containing a caspase-recruitment domain) (human, UniProt Q9ULZ3 1-195)
# T3 construct: recombinant hASC in ELISA and SPR; endogenous ASC (cytoplasmic or specks) in Western blot and immunofluorescence; also called hASC; PYCARD
# Assay: SPR avidity mode, ASC immobilized;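 further: Single-cycle SPR kinetics on Biacore T200, antibodies injected at 1.2–100 nM (3-fold steps), 300 s association, 900 s dissociation, double-referenced, 1:1 kinetic model fit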
# Procedure: Two successive regenerations of 10 mM glycine-HCl pH 1.7 for 30 sec were conducted to remove any non-covalently bound ASC.
# Binding Kinetics: Single-cycle kinetics were performed with a surface regeneration between each cycle. Prior to analysis, two Startup Cycles were run. ASC mAbs were injected in increasing concentration from 1.2-100 nM, prepared from a 3-fold serial dilution in running buffer, with a contact time of 300 sec and a dissociation time of 900 sec at a flow rate of 30 μL/min. Each successive mAb was preceded by a regeneration step using 10 mM glycine-HCl pH 1.7 with a contact time of 30 sec at 10 μL/min, followed by a stabilization period of 300 sec. Results obtained from single-cycle kinetics were double-referenced using the blank Fc 1 and a buffer cycle and evaluated by Biacore T200 evaluation software with a 1:1 kinetic fit model (with RI and global Rmax). The following kinetic parameters were obtained: Association rate constant (ka), dissociation rate constant (kd), affinity constant (KD) and saturation response (Rmax). Fitting was rejected if less than three curves could be fit. The commercial antibodies F-9 (anti-hASC) and 2EI-7 (anti-mASC) were used as controls at the start and end of the experiment.
# (§1) Obtained sensorgrams were fit with a 1:1 kinetic fit model. mAbs with a signal below 20 RU at the highest concentration were considered as “low binders”. Responses with no concentration dependence or with signal below 5 RU at the highest concentration were considered as “non-binders”.
Kd,koff,kon,Binder
0.35 nM,2.9e-05 s⁻¹,83000 M⁻¹ s⁻¹,B1
< 0.01 nM,5.6e-07 s⁻¹,110000 M⁻¹ s⁻¹,B2
< 0.01 nM,2.2e-07 s⁻¹,190000 M⁻¹ s⁻¹,B3
< 0.01 nM,4.1e-07 s⁻¹,110000 M⁻¹ s⁻¹,B4
10.5 nM,–,–,B5

# Molecular target: T1, CARD domain of human ASC
# Assay: ELISA, coated hCARD
# Procedure: (§2) Proteins and peptides were diluted in PBS. Final concentration of 3 μg/mL for human and mouse ASC proteins and 2 μg/mL for PYD and CARD domain of hASC was used to coat ELISA plates (MaxiSorp, Nunc) overnight (ON) at 4° C., 50 μL/well. After washing four times with PBS/0.05% Tween-20 and blocking for one hour at 37° C. […] After washing, plates were incubated two hours at RT with 1 mg/mL of phosphatase substrate pNPp (Sigma, cat. n° S0942). […] The absorbance signal was read at 405 nm wavelength using a plate reader (Tecan Infinity M200). EC50 was calculated using GraphPad Prism 8 and a non-constrain variable slope 4 parameter fit.
# (§3) The binding potency of a mAb to human ASC (hASC), mouse ASC (mASC), human PYD (hPYD) and human CARD (hCARD) was determined by ELISA.
EC50,binding result,Binder
0.13 nM,–,B6
–,no binding,B1
0.07 nM,–,B2
–,no binding,B7
0.12 nM,–,B8
–,no binding,B3
–,no binding,B4
0.17 nM,–,B9
0.14 nM,–,B10
0.06 nM,–,B5
–,no binding,B11

# Molecular target: T3, human ASC (apoptosis associated …)
# Assay: ELISA, coated hASC;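 further: antibody binding to plate-coated recombinant human ASC, read as phosphatase substrate absorbance, EC50 from four-parameter variable-slope fit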
# Procedure: as §2, §3
row,EC50,Binder
1,0.15 nM,B6
2,0.09 nM,B1
3,0.06 nM,B2
4,0.26 nM,B7
5,0.11 nM,B8
6,0.06 nM,B3
7,0.07 nM,B4
8,0.09 nM,B9
9,0.16 nM,B10
10,0.06 nM,B5
11,0.19 nM,B11

# Molecular target: T2, mouse ASC
# Assay: ELISA, coated mASC
EC50,binding result,Binder
0.11 nM,–,B6
–,no binding,B1
–,no binding,B2
0.26 nM,–,B7
0.63 nM,–,B8
0.16 nM,–,B9
0.14 nM,–,B10
–,no binding,B5
0.17 nM,–,B11

# Molecular target: T4, PYD domain of human ASC (human, UniProt Q9ULZ3 1-91, limits assumed)
# T4 construct: biotinylated in BLI; His/MBP-tagged in the alanine ELISA; also called hPYD; human PYD
# T4 sequence (Q9ULZ3 1-91 limits assumed): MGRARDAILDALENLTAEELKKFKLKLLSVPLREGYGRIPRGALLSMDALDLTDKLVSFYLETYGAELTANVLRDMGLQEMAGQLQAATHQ
# Assay: ELISA, coated hPYD;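 further: monoclonal antibody binding to plate-coated human ASC PYD measured by ELISA, with a phosphatase substrate absorbance read-out and EC50 from a variable slope curve fit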
# Procedure: as §2, §3
binding result,EC50,Binder
no binding,–,B6
–,0.08 nM,B1
no binding,–,B2
–,0.16 nM,B7
no binding,–,B8
–,0.07 nM,B3
–,0.06 nM,B4
no binding,–,B9
no binding,–,B10
no binding,–,B5
–,0.16 nM,B11

# Molecular target: T3, human ASC (apoptosis associated …)
# Assay: SPR affinity mode, mAb captured;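 further: Single-cycle SPR kinetics with mAbs captured on goat anti-mouse antibody, double-referenced against blank flow cell and buffer cycle, fitted by a 1:1 kinetic model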
# Procedure: ASC mAb Capture and Binding Kinetics: Each cycle started with non-covalent capture of ASC mAbs (listed in Table 1) which were diluted in running buffer to a final concentration of 2 μg/mL and injected for 90 sec with a flow rate of 10 μL/min. Eight mAbs were captured on flow-cell 2 at the same time, leaving flow-cell 1 as a blank control. Capture levels were evaluated following a 120 sec stabilization period after each mAb injection and ranged from 300 to 460 RU (see Table 3).
# Binding affinity of mAbs for hASC and mASC was assessed using a single-cycle kinetics method. Prior to analysis, two startup cycles were run. […] Regeneration of the goat anti-mouse antibody was achieved by injection of 10 mM glycine-HCl pH 1.7 at a flow rate of 10 μL/min for 120 sec, followed by a stabilization period of 300 sec. For blank injections running buffer was injected under the same conditions. Results obtained from single-cycle kinetics were double-referenced using the blank flow-cell 1 and a buffer cycle and evaluated using the Biacore 8K evaluation software with 1:1 kinetic fit model (global Rmax). The following kinetic parameters were obtained: Association rate constant (ka), dissociation rate constant (kd), affinity constant (KD) and saturation response (Rmax). Fitting was rejected if less than three curves could be fit.
# as §1
Kd,koff,kon,Binder
1.34 nM,0.00017 s⁻¹,130000 M⁻¹ s⁻¹,B1
0.11 nM,1.5e-05 s⁻¹,130000 M⁻¹ s⁻¹,B2
0.36 nM,0.00017 s⁻¹,470000 M⁻¹ s⁻¹,B3
0.12 nM,2.9e-05 s⁻¹,250000 M⁻¹ s⁻¹,B4
0.55 nM,0.00019 s⁻¹,360000 M⁻¹ s⁻¹,B5
